Where a chain is given by its changes, count along the chain named.
Columns and labels:
[1] = target: T1, hIL-13Rα1.ECR (N-terminal FLAG-tagged fusion protein of the extracellular region of human IL-13Rα1) (human, UniProt P78552 29-343); experiment: ELISA on plate-bound hIL-13Rα1.ECR
T1 construct: also called human IL-13Rα1.ECR; hIL-13Rα1 extracellular domain
T1 sequence: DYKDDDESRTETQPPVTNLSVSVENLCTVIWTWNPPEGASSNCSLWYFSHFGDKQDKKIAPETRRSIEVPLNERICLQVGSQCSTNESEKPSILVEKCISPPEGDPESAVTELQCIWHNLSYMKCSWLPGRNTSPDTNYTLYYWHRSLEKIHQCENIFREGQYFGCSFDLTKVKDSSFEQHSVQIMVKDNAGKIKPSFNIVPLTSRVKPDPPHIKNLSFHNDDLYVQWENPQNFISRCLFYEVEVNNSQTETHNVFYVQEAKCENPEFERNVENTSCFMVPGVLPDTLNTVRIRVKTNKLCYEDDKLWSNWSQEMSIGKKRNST

[2] = target: T2, human IL-13Rα1 on normal human dermal fibroblast (NHDF) cells (human, UniProt P78552 27-427); experiment: cell-based or functional assay
T2 sequence: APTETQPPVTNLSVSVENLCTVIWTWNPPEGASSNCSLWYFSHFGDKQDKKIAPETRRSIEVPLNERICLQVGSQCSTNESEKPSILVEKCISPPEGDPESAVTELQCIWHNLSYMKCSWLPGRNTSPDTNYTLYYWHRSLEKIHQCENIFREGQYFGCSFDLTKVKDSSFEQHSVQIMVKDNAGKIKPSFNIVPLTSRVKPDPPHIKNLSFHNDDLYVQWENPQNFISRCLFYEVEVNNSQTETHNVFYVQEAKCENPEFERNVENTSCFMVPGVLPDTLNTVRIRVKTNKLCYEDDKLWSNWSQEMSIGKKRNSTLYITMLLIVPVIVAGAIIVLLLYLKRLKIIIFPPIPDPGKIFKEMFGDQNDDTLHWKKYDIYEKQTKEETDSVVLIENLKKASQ

[3] = target: T2, human IL-13Rα1 on normal human dermal …; experiment: cell-based or functional assay; remark: listed apart in the source
[4] = target: T1, hIL-13Rα1.ECR (N-terminal FLAG-tagged …); experiment: BIACORE SPR, hIL-13Rα1.ECR immobilized on CM5 chip, antibody as analyte, bivalent model
Procedure: BIACORE-Based Studies. Human IL-13Rα1.ECR (40 μg/ml in 20 mM Sodium Acetate, pH 4.2) of Example 1 was immobilized to a sensorchip (CM5, Biosensor, Sweden) using standard NHS/EDC chemistry according to the manufacturer's instructions at a set immobilization value, for example, 1000RU. Ethanolamine (1.0 M) pH 8.0 was used to quench residual active esters post hIL-13Rα1.ECR immobilization.
Analysis of binding of antibody (concentration range of 1.4 nM to 150 nM, two-fold dilutions) to the immobilized hIL-13Rα1. ECR was performed in duplicate. Sensorgrams generated were fitted to a bivalent ligand binding model to simultaneously derive association (kₐ) and dissociation (kd) rates and used to determine binding affinity (KD, Biaevaluation software, BIACORE™, Sweden).

[5] = target: T3, IL-13Rα1 on whole blood cells or PBMCs (TARC release assay); experiment: cell-based or functional assay
T3 sequence (P78552 whole entry, species assumed, looked up): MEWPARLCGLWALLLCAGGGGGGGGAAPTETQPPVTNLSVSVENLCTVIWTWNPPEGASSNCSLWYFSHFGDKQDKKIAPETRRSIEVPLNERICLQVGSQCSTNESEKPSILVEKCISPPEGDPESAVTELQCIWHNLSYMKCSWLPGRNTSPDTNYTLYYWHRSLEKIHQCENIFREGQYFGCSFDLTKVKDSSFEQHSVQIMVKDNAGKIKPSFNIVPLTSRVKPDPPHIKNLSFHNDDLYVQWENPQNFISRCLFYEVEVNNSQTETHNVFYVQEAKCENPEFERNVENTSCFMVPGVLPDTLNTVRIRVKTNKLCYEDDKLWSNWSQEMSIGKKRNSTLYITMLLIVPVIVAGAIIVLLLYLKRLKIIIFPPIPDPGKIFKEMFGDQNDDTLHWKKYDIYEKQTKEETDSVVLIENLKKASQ

B1: 2B6 (antibody, V domains shown)
VH: QVQLVESGGGVVQPGRSLRLSCAASGFTFSYYGMHWVRQAPGKGLEWVAFIWYDGSNKYYEDSVKGRFTISRDNSKNTLYLQMNSLRAEDTAVYYCARVAAAGAVEYFQHWGQGTLVTVSS
VL: AIQLTQSPSSLSASVGDRVTITCRASQVISSVLAWYQQKSGKGPKLLIYDASSLESGVPSRFSGSGSGTDFTLTISSLQPEDFATYYCQQFNSYPLTFGGGTKVEIK
notes: Human monoclonal antibody purified from a hybridoma of HuMAb transgenic mice; also called PTA-6932; 2136
- Kd [1]: 0.36 nM
- NHDF IL-13-induced STAT6 phosphorylation (EC50) [2]: 7 µg/mL
- NHDF cells IL-13 Eotaxin release (IC50) [on average] [3]: 3.5 µg/mL
- Kd [4]: 16.5 nM

B2: 8B4 (antibody, V domains shown)
VH: EVQVLESGGGLVQPGGSLRLSCAASGFTFSNYAMTWVRQAPGKGLEWVSTISGRGYSIYYADSVKGRFTISRDNSKNTVYLQMNSLRAEDTAVYYCAKEEGHWYFDVWGRGTLVTVSS
VL: EIVLTQSPDFQSVTPKEKVTITCRASQSIGSSLHWYQQKPDQSPKLLIKYASQSFSGVPSRFSGSGSGTDFTLTINSLEAEDAAAYYCHQSSSLPYTFGQGTKLEIK
notes: Human monoclonal antibody purified from a hybridoma of HuMAb transgenic mice; also called PTA-6934
- Kd [1]: 0.267 nM
- IL-13-stimulated TARC release in whole blood or PBMCs (IC50) [5]: ~2.6 µg/mL
- NHDF IL-13-induced STAT6 phosphorylation (EC50) [2]: ~2.9 µg/mL
- NHDF cells IL-13 Eotaxin release (IC50) [on average] [3]: 1 µg/mL
- Kd [4]: 4.6 nM

B3: 6C11 (antibody, V domains shown)
VH: B2 VH with S30N, M34L, Y104F
VL: B2 VL
notes: Human monoclonal antibody purified from a hybridoma of HuMAb transgenic mice; also called PTA-6930
- Kd [1]: 0.087 nM
- IL-13-stimulated TARC release in whole blood or PBMCs (IC50) [5]: 2.5 µg/mL
- NHDF IL-13-induced STAT6 phosphorylation (EC50) [2]: 3.8 µg/mL
- NHDF cells IL-13 Eotaxin release (IC50) [on average] [3]: 9.7 µg/mL
- Kd [4]: 2.1 nM

— patent US20090285799A1 (CSL, published 2009)
